Legend:
[1] = molecular target: proprotein convertase subtilisin/kexin type 9 (PCSK9) (human) (UniProt Q8NBP7); assay: DELFIA immunoassay (PerkinElmer Cat. #1244-330) on PCSK9
[2] = molecular target: proprotein convertase subtilisin/kexin type 9 (PCSK9) (human) (UniProt Q8NBP7); assay: DELFIA immunoassay (PerkinElmer Cat. #1244-330), full-length IgG on PCSK9
[3] = molecular target: proprotein convertase subtilisin/kexin type 9 (PCSK9) (human) (UniProt Q8NBP7); assay: PCSK9 biochemical disruption assay (BPS Biosciences Cat. #72010); antibody disrupts PCSK9 binding to LDL-R
[4] = molecular target: proprotein convertase subtilisin/kexin type 9 (PCSK9) (human) (UniProt Q8NBP7); assay: PCSK9 biochemical disruption assay (BPS Biosciences Cat. #72010); antibody disrupts PCSK9 binding to LDL-R; positive signal but IC50 not reached at the concentrations tested

Sequence of UniProt Q8NBP7 (Q8NBP7 other isoform, or with tags, fused parts or gaps limits assumed): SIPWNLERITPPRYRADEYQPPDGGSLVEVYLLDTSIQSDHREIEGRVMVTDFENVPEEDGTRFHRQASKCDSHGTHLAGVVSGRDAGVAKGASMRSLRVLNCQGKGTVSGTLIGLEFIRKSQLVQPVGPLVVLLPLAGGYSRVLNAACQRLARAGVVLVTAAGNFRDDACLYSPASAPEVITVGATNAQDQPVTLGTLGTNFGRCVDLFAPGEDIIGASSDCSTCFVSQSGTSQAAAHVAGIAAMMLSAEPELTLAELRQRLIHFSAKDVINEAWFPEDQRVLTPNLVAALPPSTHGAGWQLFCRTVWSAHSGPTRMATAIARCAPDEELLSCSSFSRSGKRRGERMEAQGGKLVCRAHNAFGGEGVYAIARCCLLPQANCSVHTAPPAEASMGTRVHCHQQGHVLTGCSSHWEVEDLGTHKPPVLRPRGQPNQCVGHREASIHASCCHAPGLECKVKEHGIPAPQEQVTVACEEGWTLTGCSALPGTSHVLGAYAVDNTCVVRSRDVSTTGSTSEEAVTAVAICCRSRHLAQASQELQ

| Molecule | Relative Binding to PCSK9 Measured by DELIFA Immunoassay [1] | Relative Binding to PCSK9 Measured by DELIFA Immunoassay [2] | IC50 [3] [nM] | IC50 [4] [nM] |
| --- | --- | --- | --- | --- |
| Control (antibody) | 5.2 | – | – | – |
| Reference Antibody (antibody, V domains shown) VH: QVQLVQSGAEVKKPGASVKVSCKASGYTFTSYYMHWVRQAPGQGLEWMGEISPFGGRTNYNEKFKSRVTMTRDTSTSTVYMELSSLRSEDTAVYYCARERPLYASDLWGQGTTVTVSS VL: DIQMTQSPSSLSASVGDRVTITCRASQGISSALAWYQQKPGKAPKLLIYSASYRYTGVPSRFSGSGSGTDFTFTISSLQPEDIATYYCQQRYSLWRTFGQGTKLEIK | – | 6.6 | 20 | – |
| AB-1 (antibody, V domains shown) VH: QVQLVQSGAEVKKPGASVKVSCKASGYTFTSYYMHWVRQAPGQGLEWMGEILPGGGTTNYNQKFKSRVTMTRDTSTSTVYMELSSLRSEDTAVYYCARESPLYASDIWGQGTTVTVSS VL: DIQMTQSPSSLSASVGDRVTITCRASQGISTALAWYQQKPGKAPKLLIYSASYLYTGVPSRFSGSGSGTDFTFTISSLQPEDIATYYCQQRYSLWRTFGQGTKLEIK | – | 1.8 | 18.4 | – |
| AB-2 (antibody, V domains shown) VH: QVQLVQSGAEVKKPGASVKVSCKASGYTFTSYYMHWVRQAPGQGLEWMGWIEPFGGRTNYNEKFKSRVTMTRDTSTSTVYMELSSLRSEDTAVYYCARERPLYAMDVWGQGTTVTVSS VL: DIQMTQSPSSLSASVGDRVTITCRASQGISGALAWYQQKPGKAPKLLIYSASYRYTGVPSRFSGSGSGTDFTFTISSLQPEDIATYYCQQRYSLSRTFGQGTKLEIK | – | 3.1 | 17.2 | – |
| AB-8 (antibody, V domains shown) VH: QVQLVQSGAEVKKPGASVKVSCKASGYTFTSYYMHWVRQAPGQGLEWMGEILPSGGRTNYNEKFKSRVTMTRDTSTSTVYMELSSLRSEDTAVYYCARERPLYAMDIWGQGTTVTVSS VL: DIQMTQSPSSLSASVGDRVTITCRASQGISSALAWYQQKPGKAPKLLIYSASYRYTGVPSRFSGSGSGTDFTFTISSLQPEDIATYYCQQRYSTWRTFGQGTKLEIK | – | 2.9 | 18.4 | – |
| AB-10 (antibody, V domains shown) VH: QVQLVQSGAEVKKPGASVKVSCKASGYTFTSYYMHWVRQAPGQGLEWMGEILPSGGRTNYNEKFKSRVTMTRDTSTSTVYMELSSLRSEDTAVYYCARERPLYAMDVWGQGTTVTVSS VL: DIQMTQSPSSLSASVGDRVTITCRASQGISSALAWYQQKPGKAPKLLIYSASYRYTGVPSRFSGSGSGTDFTFTISSLQPEDIATYYCQQRYSVALTFGQGTKLEIK | – | 4.3 | 20.1 | – |

Other lines, results leading:

| Relative Binding to PCSK9 Measured by DELIFA Immunoassay [1] | Relative Binding to PCSK9 Measured by DELIFA Immunoassay [2] | IC50 [3] [nM] | IC50 [4] [nM] | Molecule |
| --- | --- | --- | --- | --- |
| – | 2.4 | 20.8 | – | AB-11 (antibody, V domains shown) VH: QVQLVQSGAEVKKPGASVKVSCKASGYSFTSYYMHWVRQAPGQGLEWMGEIDLSGGSTNYNQKFQSRVTMTRDTSTSTVYMELSSLRSEDTAVYYCARERPLYAFDVWGQGTTVTVSS VL: DIQMTQSPSSLSASVGDRVTITCRASQGISSALAWYQQKPGKAPKLLIYSASYRYTGVPSRFSGSGSGTDFTFTISSLQPEDIATYYCQQRYSLWRTFGQGTKLEIK |
| – | 2.8 | 16.1 | – | AB-3 (antibody, V domains shown) VH: QVQLVQSGAEVKKPGASVKVSCKASGYTFTSYWMHWVRQAPGQGLEWMGEIDPSGGSTNYNQKFQSRVTMTRDTSTSTVYMELSSLRSEDTAVYYCARERPLYASDVWGQGTTVTVSS VL: DIQMTQSPSSLSASVGDRVTITCRASQGISSALAWYQQKPGKAPKLLIYSASYRYTGVPSRFSGSGSGTDFTFTISSLQPEDIATYYCQQRYSLWRTFGQGTKLEIK |
| – | 4.3 | 18.9 | – | AB-5 (antibody, V domains shown) VH: QVQLVQSGAEVKKPGASVKVSCKASGYTFTSYWMHWVRQAPGQGLEWMGEISPSGGSTNYNEKFKSRVTMTRDTSTSTVYMELSSLRSEDTAVYYCARERPLYAMDVWGQGTTVTVSS VL: DIQMTQSPSSLSASVGDRVTITCRASQGISSALAWYQQKPGKAPKLLIYSASYRYTGVPSRFSGSGSGTDFTFTISSLQPEDIATYYCQQRYSLWRTFGQGTKLEIK |
| – | 2.9 | – | > 53 | AB-4 (antibody, V domains shown) VH: QVQLVQSGAEVKKPGASVKVSCKASGYTFTSYYMHWVRQAPGQGLEWMGEIRPSGGSTNYNEKFKSRVTMTRDTSTSTVYMELSSLRSEDTAVYYCARDRPLYSMDVWGQGTTVTVSS VL: DIQMTQSPSSLSASVGDRVTITCRASQGISSALAWYQQKPGKAPKLLIYSASYRYTGVPSRFSGSGSGTDFTFTISSLQPEDIATYYCQQHYSSSWTFGQGTKLEIK |
| – | 2 | 18.1 | – | AB-7 (antibody, V domains shown) VH: QVQLVQSGAEVKKPGASVKVSCKASGYTFTSYYMHWVRQAPGQGLEWMGEIFPSGGRTNYNEKFKSRVTMTRDTSTSTVYMELSSLRSEDTAVYYCARERPFYASDLWGQGTTVTVSS VL: DIQMTQSPSSLSASVGDRVTITCRASQGISSALAWYQQKPGKAPKLLIYSASNLYTGVPSRFSGSGSGTDFTFTISSLQPEDIATYYCQQRYSLWRTFGQGTKLEIK |
| – | 3.9 | – | > 53 | AB-9 (antibody, V domains shown) VH: QVQLVQSGAEVKKPGASVKVSCKASGYTFTSYYMHWVRQAPGQGLEWMGEIKPSGGTSNYNEKFKSRVTMTRDTSTSTVYMELSSLRSEDTAVYYCARDRPLYYSDVWGQGTTVTVSS VL: DIQMTQSPSSLSASVGDRVTITCRASQGISGSLAWYQQKPGKAPKLLIYSASYRYTGVPSRFSGSGSGTDFTFTISSLQPEDIATYYCQQYYSNYWTFGQGTKLEIK |
| – | 1.8 | 16.5 | – | AB-6 (antibody, V domains shown) VH: QVQLVQSGAEVKKPGASVKVSCKASGYTFTSYYMHWVRQAPGQGLEWMGEISPFGGTTNYNEKFKSRVTMTRDTSTSTVYMELSSLRSEDTAVYYCARERPLYSSDVWGQGTTVTVSS VL: DIQMTQSPSSLSASVGDRVTITCRASQGISSALAWYQQKPGKAPKLLIYSASYLYSGVPSRFSGSGSGTDFTFTISSLQPEDIATYYCQQRYSLWYTFGQGTKLEIK |
